Measurements reported in the nanobody polyreactivity screen of Harvey et al. (2022).

Assay: yeast display, Sf9 membrane polyspecificity reagent, FACS + sequencing; frameworks hold sequencing errors
Procedure, shortened: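 Sorting gates, low and high (top ~1%), were placed on anti-HA fluorescence to track expression and on streptavidin fluorescence to track reagent binding. A clone's polyreactivity label is taken from the gate it came out of. The reagent was 10% biotinylated, detergent-solubilized Sf9 membrane, applied for 1 hour at 4 °C to galactose-induced yeast display cells.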

Sequence | polyreactivity (PSR sort gate)
QVQLVESGGGLFQAGGSLRLSCAASGRIFSDYAMGWYRQAPGKERELVATITSGDSTNYADSVKGRFTISRDNAKNTVYLQMNSLKPEDTAVYYCNADRFADYDYWGQGTQVTVSS | low polyreactivity
QVQLVESGGGLVQAGGSLRLSCAASGSIFRYYAMGWYRQAPGKDRELVAVITRGGSTYYADSVKGRFTISRDNAKNTVYLQMNSLKPEDTAVYYCAADSWPAGLDRGYWGQGTQVTVSS | low polyreactivity
QVQLVESGGGLVQAGGSLRLICAASGSTFTRYAMGWYRQAPGKERELVAAINSSGGRTYYADSVKGRFTISRDNAKNTVYLQMNSLKPEDTAVYYFAATRGRYREDEDYWGQGTQVTVSS | high polyreactivity
QVQLVESGGGLVQAGGSLRLSCAASGLNFYYYAMGWYRQAPGKESELVAAISGGGSTYYADSVKGRFTISRDNAKNTVYLQMNSLKPEDTAVYYCAASYWYPSWLYDYWGQGTQVTVSS | low polyreactivity
QVQLVESGGGLVQAGGSLRLSCAASGFIFVDNAMGWYRQAPGKERELVAAITYRGGSTYYADSVKGRFTISRDNAKNTVYLQMNSLKPEVTAVYYCNADYGDTFEYDYWGQGTQVTVSS | low polyreactivity
QVQLVQTGGGVVQAGGSLRLSCAASGRIFNSYPMGWYRQAPGKERELVASINRYGGSTYYADSVKGRFTISRDNAKNTVYLQMYSLNPEDTSVYYCAARGYTSFNTGYGYWGQGTQVSVSS | high polyreactivity
QVQLEESGGGLVQAGGSLRLICAASAMGRYRQAPGKERELVAVINSTGGSTYYADSVKGRFTISRDNAKNTVYLQMYSLKPDDTAVYYCARVTRRGPGYTTLYCRYDYWGQGTQVTVSS | low polyreactivity
QVQLVESGGGLVQAGGSLRLSCAASGSIFPVYAMGWYRQAPGKERELVAAISWGGGNTYYADSVKGRFTISRDNSKNTVYLQMNSLKPEDTAVYYCNKRSRLGRGNRDYRGQGTQVTVSS | high polyreactivity
QVQLVESGGGLVQAGGSLRLSCAASGSTFTGNAMGWYRQAPGKERELVAAISRSGGRTYYADSVKGRFTISRDNAKNTVYLQMNILKPEDTGVYYCNAVRNRGQRTAFDYWGQGTQVTVSS | high polyreactivity
QVQLQESGGGMVQAGGSLLWCAASGTISYNREMGWYRQAPGKERELVAGIGVGTITYYADSVKGRFTIIRDNAKNTVYLQMNSLKPEDTAVYYCAAHIDGIDSHAYCGQGTQVTVSS | low polyreactivity
QVQLVESGGGLVQAGASLRLSCAASGFISYYYAMGWYRQAPGKERELVAAITKSGGSTYYADSVKGRFTISRDNAKNTVYLQMNSLKREDTAVYYCAAVRSTRNSTSRLYGYWGQGTQVTVSS | low polyreactivity
QVQLVESGGGLVQAGGSLRLSCAASGLIFGSYVMGWYRQAPGKERELVAAISSSGGSTYYADSVKVRFTISRDNENNTFYLQMNSLKPEDTAVYYCAARYTYSADKGYYWGQGTQVTVSS | high polyreactivity
QVQLVESGGGLVQAGGSLRLSCAASGYTFKTYAMGWYIQAPGKERELVAAISGSGGSTYYADSVMGRFTISRDNAKNTVYLQLKSLKPEDTEVYYCAATNWWGTEYDYWGQGTQVTVSS | high polyreactivity
QVQLVESGGGLVQAGGSLRLSCAASGRIFPDYDMGWYRQAPGKERELVAAITQRGGSTYADSVKGRFTISRDNAKNTVYLQMNSLKPEDTAVYYCAREYYEGYEYWGQGTQVTVSS | low polyreactivity
QVQLVESGGGLVQAGGSLRLSCAASGRIFARNTMGWYRQAPGKERELVAAISWGGGRTYYADSVKGRFTISRDNAKNTVYLQMNSLKPEDTAVYYCAAETLQIPRGEYWGQGTQVNVSS | low polyreactivity
QVQLVESGGGLVQAGGSLRLSCAASGRTYPRYGMGWYRQAPGKERELVDTIRTGGRTNYADSVKGRFTISRDNAKNTVYLQMNSLKPEDTAVYYCATDSSKHPYSPTLLKFDYWGQGTQVTVSS | low polyreactivity
QVQLVESGGGLVQAGGSLRLSCAASGTFNYYAMGWYRQAPGKERELVAAISNGDSTTYADSVKGRFTISRDNAKNTVYLQMNSLKPEDTAVYYCAAYRYTPRTSRGYYYWGQGTQVTVSS | low polyreactivity
QVQLVESGGGLVQAGGSLRLSCAASGSIFRIYAMGWYRLEPGKERELVSGISKSVGSTYYADSVKGRFTISRDNAKNTVYLQMNSLKTEDTAVYYCNARRPSWGLDKYDYWGQGTQVTVSS | low polyreactivity
QVQLVESGGGLLQAGGSLRLSCAASGSIFSRYVMGWYRQAPGKERELVAGISGSGGSTYYADSVKGRFTISRDNAKNTVYLQMNSLKPEDTAVYYCNAATSRLYYNHYTRYNYWGQGTQVTVSS | high polyreactivity
QVHLVESGGGLVQAGGSLRLSCAASGSIFSSYAMGWYRQAPGKEREFVAAISWGGGSTYYADSVKGRFTISRDNAKNSVYLQMNSLKPEDTAVYYCAVETWLYPYDYWGQGTQVTVSS | high polyreactivity
QVQLVESGGGLVQAGGSLRLSCAASGSTFSAYVMGWYRQAPVKERELVAAISSIGGSTYYADSVKGRFTISRDNAKNTVYLQMNSLKPEDTAVYYCAAEPPGSTYEGGYWGQGTQVTVSS | low polyreactivity
QVQLVESGGGLVQAGGSLRLSCAASGSTFYAYALGWYRQAPGKERELVAAISSDGTNYADSVKGRFTISRDNAKNTVYLQMNSLKPVDTAVYYCAADLLLYSSQDNDYWGQGTQVTVSS | low polyreactivity

Sequence | polyreactivity (PSR sort gate)
QVQLVESGGGLVQAGGSLRLSCAASGFTFKRYAMGWYRQAPGKERELVAAISYGGSRTYYADSVKGRFTISRDNAKNTVYLQMNSLKPEDTAVYYCNFRRRTWHYITSMDYWGQGTQVTVSS | high polyreactivity
QVQLVESGGGLVQAGGSLRLSCAASGSIFTPNVMGWYRQAPGKERELVAAISQSGGSTFYADSVKGRFTISRDNAKNTVYLQMNSLKPEDTAVYYCATEYYGPVYDLDYDYWGQGTQVNVSS | low polyreactivity
QVQLVESGGGLVQAGGSLRISCAASGRIFYYYDMGWYRQAPGKERELVAAISRSGGRTYYADSVKGRFTISRDNANNTVYLHMNSLKPEDTAVYYCNVVRQGGTLGYDYWGQGTQVTVSS | high polyreactivity
QVQLVESGGGLVQAGGSLRLSCAASGSIFIQNGMGWYRQAPGKERELVASSASGGSTNYADSVKGRYTISRDNAKNTVYVQMNSLKPEDTAVYYCAARVWYSSDGSTYPYTRYDYWGQGTQVTVSS | high polyreactivity
QVQLVESGGGLVQAGGSLRLSCAASGRIFKQYTMGWYRQAPGKERELVAAITSSGAGTFYADSVKGRFTISRDNAKNTVYLQMNSLKPEDTAVYYCAASWSRRDRGFDYWGQGTQVTVSS | high polyreactivity
QVQLQESGGGLVQAGGSLLSCAASGTISWVDEMGWYRQAPGNERELVAGIAGGGNTNYADSVKGRFTISRDNAKNTVYLQMNSLDTAVYYCAVVGFGLGTHIYWGQGTQVTVSS | high polyreactivity
QLQLVESGGGLVQAGGSLRLSCAASGGTFQPNAMGWYIQAPGKESELVAAISWSDGSTYYADSVKGRFTISRDYAKNTVYLQMNSLKPEDTAVDYCAADFTYYDSPYRDYNYESWGQGTQVTVSS | low polyreactivity
QVQLVESGGGLVQAGGSLRLSCAASGFIFPWYAMGWYRQAPGKERELVAIISWDTGSTYYADSVKGRFTISRDNAKNTVYLQMNSLKPEDTAVYYCAAAYYYYVSGWFDYWGQGTQVTVSS | low polyreactivity
QVQLVESGGGIVQAGGSLRLSCAASGRTFYSSAMGWYRQAPGKERALVAAITSDGGTYYADSVKGRFTISRDNAKNTVYLQMNSLKPEDTAVYYCNTRDLYGYPQVTGYDYWGQGSQVTVSS | low polyreactivity
QVQLVESGVGLVQAGGSLRLSCAASGSIFQKYTMGWYRQAPGKERQLVAAITRSGGSTYYADSVKGRFTISRDNAKNTVYLQMNSLKAEDSAVYYCNKRYIPWAYDYWGQGTQVTVSS | high polyreactivity
QVQLVESGGGLVQAGGSLRLSCAASGSIFTQYAMGWSRQAPGKERELVAVITTGSSTYYADSVKRRFTISRDNAKNTVYLQMNSLKPEDTSVYYCAVRTATRSPRRYGYWGQGTQVTVSS | high polyreactivity
QVQLVESGGGLVQAGGSLRLSCAASGRIFSKNAMGWCRQAPGKERELVAGITSNSGSTYYADSVKGRFTISRDNAKNTVYLQMNSLIPEDTAVYYCAARFPHRHYLLYTYDYWGQGTQVTVSS | low polyreactivity
QVQLVESGGGLVKAGGSLRLSCAASGNTFGRNVMGWYRPAPGKERELVAAINRGGSTTYADSVKGRFTISRDNAKNTVYLQMNSLKPEDTAVYYCNAEIRGQSYRFDYWGQGTQVTVSS | high polyreactivity
QVQLVESGGGLVQAGGSLRLSCAASGTNVKGWYRQAPGKERELVAAISGSGGSTYYADSVKGRFTISRDNAKNTVYLQMNSLKPEDTAVYYCAADSIQYTARPYDYWGQVTQVTVSS | low polyreactivity
QVQLVESGGGLVQAGGSLRLSCAASGRIITKYTMGWYRQAPGKERELFAAISRSDRTNYADSVKGRFTISRDNAKNTVYLQMNSLKPEDTAVYYCNARHSYWTGRRVTDDYDYRGQGTQVTVSS | high polyreactivity
QVQLVESGGGLVQAGGSLRLSCAASGSTFRGYVMGWYRQAPGKERELVAAITWGGGRTYYADSVKGRFTISRDNAKNTVYLQMNSLKPEDTAVYYCAARVRGQGSYQFGYWGQGTQVTVSS | high polyreactivity
QVHLVESGGGLLQAGGSLRLSCAASGRTSDSNAMGWYRQAPGKETELVAAITISGVSTYYADTVKGRFTISRDNAKNTVYLQMNSLKPEDTAVYYCAKDPTFSSSFAVSLGFDSWGQGTQVTVSS | low polyreactivity
QVQIVESGGGLVQAGGSLRLSCAASGLIFYAYAMGWYRQAPGKERELVAAMSYSGGSTYYADSVKGRFTISRDLAKNTVYLQMNSLKPEDTAVYYCAADDGISTYEYWGQGTQVTVSS | high polyreactivity
QVQHVESGGGLVQAGGSLRLSCAASGSTLGGYAMGWYRQAPGKERELVAAIRWRDGRTYYADSVKGRFTISRDNPKNTVYLQMNSLKPEDTAVYYCAAQYYLARVSFDYWGQGTQVTVSS | high polyreactivity
QVQLVESGGGLVQAGGSLRLSCAASGRIFGWYAMGWYRQAPGNEREFVAAITVTGGSTYYADSVKGRCTISRDNAKNTVYLQMNSLKPEDTAVYYCAADRWYTRTGFDYWGQGTQVTVSS | low polyreactivity
QVQLVESGGGLVQAGGSLRLSCAASGFIFWYYAMGWYRQAPGKERELVAAISSRGGSTYYADSVKGRFTISRDNAKNTVYLQMNSLKPEDTAVYYCAATGYTGYSRYYYWGQGTQVTVSS | high polyreactivity
